This note sets out measurements from the supplement of paper PMC7877785.

The nature of this series: self-splicing fitness, log relative to wild type (ln ratio); higher = more splicing; Tetrahymena group I intron in knt gene, E. coli kanamycin selection, DiMSum; sequences stand for … in CUCUCU…GGAGGGAAAAGUUAUCAGGCAUGCACCUGGUAGCUAGUCUUUAAACCAAUAGAUUGCAUCGGUUUAAAAGGCAAGACCGUCAAAUUGCGGGAAAGGGGUCAACAGCCGUUCAGUACCAAGUCUCAGGGGAAACUUUGAGAUGGCCUUGCAAAGGGUAUGGUAAUAAGCUGACGGACAUGGUCCUAACCACGCAGCCAAGUCCUAAGUCAACAGAUCUUCUGUUGAUAUGGAUGCAGUUCACAGACUAAAUGUCGGUCGGGGAAGAUGUAUUCUUCUCAUAAGAUAUAGUCGGACCUCUCCUUAAUGGGAGCUAGCGGAUGAAGUGAUGCAACACUGGAGCCGCUGGGAACUAAUUUGUAUGCGAAAGUAUAUUGAUUAGUUUUGGAGUACUCGUGGUCG
The method, boiled down:
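The eight P1ex-region nucleotides of an intron in the knt kanamycin-resistance gene on pET-22b(+) were all randomised and the library put into E. coli BL21(DE3). Six replicate transformations were grown overnight at 37°C or 30°C on LB agar with or without 25 μg/mL kanamycin, together with 100 μg/mL carbenicillin, 50 μM IPTG and 0.2% rhamnose. Colonies were pooled and amplicon-sequenced on an Illumina HiSeq 2500. Fitness from DiMSum is the error-weighted combination of wild-type-normalised replicate fold changes, kanamycin over none.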

± gives the uncertainty stated by the source.

On to CAGCAGCAAUAUUACGGAAC, for which the “self-splicing fitness (ln)” value was -1.79 ± 0.3 (30 °C) and -1.87 ± 0.44 (37 °C).
As for CCCUAGCAAUAUUACGUGAA, the “self-splicing fitness (ln)” value is, setting by setting: (30 °C) -2.8 ± 0.16; (37 °C) -2.62 ± 0.2.
Turning to GAUGAGCAAUAUUACGUUCA, the “self-splicing fitness (ln)” value was -1.15 ± 0.079 (30 °C) and -0.819 ± 0.094 (37 °C).
As for AGUCAGCAAUAUUACGGGCA, the “self-splicing fitness (ln)” value is -0.79 ± 0.095 (30 °C) and -0.281 ± 0.11 (37 °C).
In the same order, the values of CUCAAGCAAUAUUACGAGUA are -3.49 ± 0.28 and -2.41 ± 0.23.
For UGAUAGCAAUAUUACGCCAC, where the note is “37 °C”, the “self-splicing fitness (ln)” value is -0.614 ± 0.29.
GUGAAGCAAUAUUACGCUAA: the “self-splicing fitness (ln)” value is -1.25 ± 0.15 (30 °C) and -0.0384 ± 0.17 (37 °C).
Take CCCUAGCAAUAUUACGUCUU: the “self-splicing fitness (ln)” value is, setting by setting: (30 °C) -2.95 ± 0.13; (37 °C) -2.54 ± 0.25.
As for CCAUAGCAAUAUUACGGGAA, the “self-splicing fitness (ln)” value (30 °C) is -3.49 ± 0.19 and the “self-splicing fitness (ln)” value (37 °C) was -2.84 ± 0.18.
GGAGAGCAAUAUUACGAAUG: the “self-splicing fitness (ln)” value reads like this: (30 °C) -3.28 ± 0.28; (37 °C) -2.71 ± 0.41.
Take GCACAGCAAUAUUACGUAGC: the “self-splicing fitness (ln)” value by setting is: (30 °C) -2.19 ± 0.089; (37 °C) -1.64 ± 0.12.
As for UGGGAGCAAUAUUACGAACG, the “self-splicing fitness (ln)” value is, setting by setting: (30 °C) -1.07 ± 0.1; (37 °C) -0.54 ± 0.16.
Taken in the same sequence, the figures for GUCGAGCAAUAUUACGAUUG were -4.1 ± 0.33 and -3.26 ± 0.26.
In the case of AACCAGCAAUAUUACGGGCA, the “self-splicing fitness (ln)” value by setting is: (30 °C) -0.402 ± 0.041; (37 °C) 0.117 ± 0.053.
On to CCGCAGCAAUAUUACGGGGU, for which the “self-splicing fitness (ln)” value reads like this: (30 °C) -3.54 ± 0.14; (37 °C) -2.21 ± 0.13.
In the same order, the values of CCUAAGCAAUAUUACGACGA are -2.67 ± 0.24 and -2.1 ± 0.38.
In the case of CACUAGCAAUAUUACGAACA, the “self-splicing fitness (ln)” value reads like this: (30 °C) -3.04 ± 0.42; (37 °C) -2.83 ± 0.3.
On to AGCGAGCAAUAUUACGAAAG, for which the “self-splicing fitness (ln)” value (37 °C) is -0.117 ± 0.3.
Consider UCCUAGCAAUAUUACGCAGG, for which the “self-splicing fitness (ln)” value runs as follows: (30 °C) -1.8 ± 0.46; (37 °C) -2.88 ± 0.37.
Taken in the same sequence, the figures for CAUGAGCAAUAUUACGGAAU were -4.62 ± 0.36 and -2.58 ± 0.28.
In the same order, the values of AAAAAGCAAUAUUACGCUAG are -1.41 ± 0.086 and -0.619 ± 0.085.
Take AGAAAGCAAUAUUACGUUCU: the “self-splicing fitness (ln)” value is, setting by setting: (30 °C) -2.72 ± 0.15; (37 °C) -1.41 ± 0.14.
On to CCCUAGCAAUAUUACGGAUC, for which the “self-splicing fitness (ln)” value by setting is: (30 °C) -4.33 ± 0.39; (37 °C) -1.71 ± 0.25.
GUAUAGCAAUAUUACGGUCG: the “self-splicing fitness (ln)” value reads like this: (30 °C) -2.06 ± 0.15; (37 °C) 0.0791 ± 0.15.
In the same order, the values of GCAAAGCAAUAUUACGCGAG are -2.18 ± 0.28 and -1.11 ± 0.18.
Consider GAUUAGCAAUAUUACGACUA, for which the “self-splicing fitness (ln)” value by setting is: (30 °C) -0.765 ± 0.17; (37 °C) 0.0117 ± 0.13.
Consider ACGUAGCAAUAUUACGCAUC, for which the “self-splicing fitness (ln)” value runs as follows: (30 °C) -3.3 ± 0.22; (37 °C) -0.518 ± 0.29.
For the sequence AAGUAGCAAUAUUACGUCGG, the “self-splicing fitness (ln)” value (30 °C) was -2.97 ± 0.25 and the “self-splicing fitness (ln)” value (37 °C) is -2.09 ± 0.26.
Taken in the same sequence, the figures for CUACAGCAAUAUUACGAAUG were -0.558 ± 0.059 and -0.464 ± 0.075.
For CCACAGCAAUAUUACGUAUU, the “self-splicing fitness (ln)” value (30 °C) was -3.57 ± 0.15 and the “self-splicing fitness (ln)” value (37 °C) was -2.01 ± 0.14.
On to CCAAAGCAAUAUUACGUAAU, for which the “self-splicing fitness (ln)” value is -4.12 ± 0.18 (30 °C) and -2.62 ± 0.19 (37 °C).
With GGACAGCAAUAUUACGGAUC, the “self-splicing fitness (ln)” value by setting is: (30 °C) -1.3 ± 0.11; (37 °C) 0.26 ± 0.13.
Consider AUAUAGCAAUAUUACGCUAC, for which, for the setting “30 °C”, the “self-splicing fitness (ln)” value was -2.34 ± 0.33.
For the sequence GGGUAGCAAUAUUACGCAAU, the “self-splicing fitness (ln)” value is -1.79 ± 0.31 (30 °C) and -1.47 ± 0.39 (37 °C).
In the case of AGUGAGCAAUAUUACGGCGC, the “self-splicing fitness (ln)” value (30 °C) is -0.869 ± 0.35 and the “self-splicing fitness (ln)” value (37 °C) is -0.599 ± 0.2.
For the sequence UGACAGCAAUAUUACGAUUG, the “self-splicing fitness (ln)” value was -0.875 ± 0.061 (30 °C) and -0.525 ± 0.067 (37 °C).
On to GUAAAGCAAUAUUACGAGAA, for which the “self-splicing fitness (ln)” value reads like this: (30 °C) -2.06 ± 0.14; (37 °C) -0.181 ± 0.21.
Taken in the same sequence, the figures for UAUUAGCAAUAUUACGUUUG were -2.12 ± 0.12 and -0.749 ± 0.13.
As for UUGGAGCAAUAUUACGGAAG, the “self-splicing fitness (ln)” value (30 °C) is -3.3 ± 0.44.
As for CAGUAGCAAUAUUACGUCUG, the “self-splicing fitness (ln)” value (30 °C) is -3.23 ± 0.11 and the “self-splicing fitness (ln)” value (37 °C) was -2.6 ± 0.13.
For AGCUAGCAAUAUUACGCAAG, the “self-splicing fitness (ln)” value reads like this: (30 °C) -4.11 ± 0.47; (37 °C) -2.93 ± 0.3.
On to AUAGAGCAAUAUUACGGCAU, for which the “self-splicing fitness (ln)” value is, setting by setting: (30 °C) 0.19 ± 0.084; (37 °C) 0.738 ± 0.12.
In the case of GGACAGCAAUAUUACGCUCA, the “self-splicing fitness (ln)” value (30 °C) is -0.215 ± 0.12 and the “self-splicing fitness (ln)” value (37 °C) was -0.136 ± 0.15.
Taken in the same sequence, the figures for CUCUAGCAAUAUUACGGCAG were -2.41 ± 0.28 and -2.72 ± 0.44.
In the case of UAGUAGCAAUAUUACGCACG, the “self-splicing fitness (ln)” value by setting is: (30 °C) -0.964 ± 0.15; (37 °C) -0.244 ± 0.21.
In the case of UUUGAGCAAUAUUACGUUGC, the “self-splicing fitness (ln)” value runs as follows: (30 °C) -2.68 ± 0.34; (37 °C) -2.29 ± 0.36.
Taken in the same sequence, the figures for ACGCAGCAAUAUUACGUCUG were -2.44 ± 0.14 and -2.5 ± 0.28.
Taken in the same sequence, the figures for AUCAAGCAAUAUUACGUGGA were -2.28 ± 0.14 and -1.71 ± 0.12.
UACCAGCAAUAUUACGUCUA: the “self-splicing fitness (ln)” value runs as follows: (30 °C) 0.0647 ± 0.067; (37 °C) 0.41 ± 0.086.
With CGAUAGCAAUAUUACGCUUG, the “self-splicing fitness (ln)” value is -2.88 ± 0.2 (30 °C) and -1.04 ± 0.16 (37 °C).
Taken in the same sequence, the figures for UGUAAGCAAUAUUACGCUCA were -0.207 ± 0.11 and 0.681 ± 0.18.
On to UGCGAGCAAUAUUACGGUGU, for which the “self-splicing fitness (ln)” value (30 °C) is -4.19 ± 0.23 and the “self-splicing fitness (ln)” value (37 °C) is -3.16 ± 0.4.
As for GUCAAGCAAUAUUACGAGUC, the “self-splicing fitness (ln)” value is, setting by setting: (30 °C) -3.75 ± 0.2; (37 °C) -2.87 ± 0.26.
On to AAUUAGCAAUAUUACGGUGC, for which the “self-splicing fitness (ln)” value is -2.19 ± 0.26 (30 °C) and -3 ± 0.43 (37 °C).
Regarding CGGGAGCAAUAUUACGGUGC, the “self-splicing fitness (ln)” value (30 °C) is -3.21 ± 0.49.
Consider GCCCAGCAAUAUUACGCGUC, for which the “self-splicing fitness (ln)” value reads like this: (30 °C) -1.17 ± 0.067; (37 °C) -0.202 ± 0.075.
Regarding ACAUAGCAAUAUUACGCUAG, the “self-splicing fitness (ln)” value is -2 ± 0.11 (30 °C) and -0.855 ± 0.13 (37 °C).
Taken in the same sequence, the figures for GGACAGCAAUAUUACGCGCA were -0.346 ± 0.061 and 0.497 ± 0.09.
AGUCAGCAAUAUUACGCACU: the “self-splicing fitness (ln)” value is -2.19 ± 0.12 (30 °C) and -1.42 ± 0.13 (37 °C).
In the case of ACCUAGCAAUAUUACGGCCA, the “self-splicing fitness (ln)” value is, setting by setting: (30 °C) -1.33 ± 0.13; (37 °C) -0.234 ± 0.12.
For the sequence AGAAAGCAAUAUUACGCUGG, the “self-splicing fitness (ln)” value reads like this: (30 °C) -3.7 ± 0.36; (37 °C) -2.77 ± 0.31.
